According to publication PMC5906006 (PLoS ONE, 2018):
Bridge positions count the residues as written; N and C are the ends. Square brackets hold non-standard residues; d marks the D form. Peptide text beside a SMILES is read from it. * marks the point of attachment. X1 = O=C(O)CN1CCN(CC(=O)O)CCN([C@H](CCC(=O)*)C(=O)O)CC1; dPhe(4-NHCONH2) = NC(=O)Nc1ccc(C[C@@H](N)C(=O)O)cc1; Dihydroorotyl(S) = O=C1C[C@@H](C(=O)*)NC(=O)N1; Phe(4-Cl) = N[C@@H](Cc1ccc(Cl)cc1)C(=O)O; Phe(4-NH2) = Nc1ccc(C[C@H](N)C(=O)O)cc1

How the values were obtained:
[1] = Biodistribution in HEK-hsst2 tumor-bearing mice; conditions: female, Balb/c nude, mouse, in vivo, iv, total radioactivity
human sst2 receptors = molecular target: T1, human sst2 receptors (Homo sapiens, UniProt P30874); experiment: Saturation binding on HEK-hsst2 cells; conditions: 2 hours at +4 °C
T1 construct: expressed in transfected cells; host or cells: HEK-293 (HEK-hsst2), a gift from Prof; Schulz, University of Jena
T1 sequence (P30874 whole entry): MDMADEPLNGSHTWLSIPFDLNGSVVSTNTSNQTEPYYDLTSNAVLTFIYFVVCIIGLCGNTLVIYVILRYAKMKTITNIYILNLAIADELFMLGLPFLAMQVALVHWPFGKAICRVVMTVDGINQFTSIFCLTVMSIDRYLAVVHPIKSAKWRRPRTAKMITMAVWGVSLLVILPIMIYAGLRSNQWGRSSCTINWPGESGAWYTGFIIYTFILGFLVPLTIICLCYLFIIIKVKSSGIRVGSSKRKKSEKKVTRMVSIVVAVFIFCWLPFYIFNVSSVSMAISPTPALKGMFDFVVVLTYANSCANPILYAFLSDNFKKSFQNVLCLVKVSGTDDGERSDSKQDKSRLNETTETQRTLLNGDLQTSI
Method: The saturation binding experiments were performed with radioligand (^64/natCu-NODAGA-JR11 and ^64/natCu-DOTA-TATE) concentrations ranging from 0.5–75 nM and 0.5–90 nM, respectively, for 2 hours at +4 °C as described previously [24]. The Kd and Bmax values were calculated using GraphPad.

Question: Which results are given for `C[C@@H](O)[C@@H]1NC(=O)[C@H](CCCCN)NC(=O)[C@@H](Cc2ccc(NC(N)=O)cc2)NC(=O)[C@H](Cc2ccc(NC(=O)[C@@H]3CC(=O)NC(=O)N3)cc2)NC(=O)[C@H](NC(=O)[C@H](Cc2ccc(Cl)cc2)NC(=O)CC[C@H](C(=O)O)N2CCN(CC(=O)O)CCN(CC(=O)O)CC2)CSSC[C@@H](C(=O)N[C@H](Cc2ccc(O)cc2)C(N)=O)NC1=O` [^64Cu-NODAGA-JR11, metal not drawn] (X1-[Phe(4-Cl)][dC][Phe(4-NH2)](Dihydroorotyl(S))[dPhe(4-NHCONH2)]KTC[dY]-NH2; disulfide 2-7)?
Answer: tissue uptake at 1 h ([1]; 10 pmol, Adrenal uptake): 4.8 ± 0.8 %ID/g; tissue uptake at 4 h ([1]; 10 pmol, Adrenal uptake): 3.5 ± 0.9 %ID/g; tissue uptake at 24 h ([1]; 10 pmol, Adrenal uptake): 1.5 ± 0.6 %ID/g; tissue uptake at 1 h ([1]; 10 pmol, Blood uptake): 0.6 ± 0.2 %ID/g; tissue uptake at 4 h ([1]; 10 pmol, Blood uptake): 0.1 %ID/g; tissue uptake at 24 h ([1]; 10 pmol, Blood uptake): 0.1 %ID/g; tissue uptake at 1 h ([1]; 10 pmol, Bone uptake): 0.7 ± 0.2 %ID/g; tissue uptake at 4 h ([1]; 10 pmol, Bone uptake): 0.8 ± 0.2 %ID/g; tissue uptake at 24 h ([1]; 10 pmol, Bone uptake): 0.4 ± 0.2 %ID/g; tissue uptake at 1 h ([1]; 10 pmol, Heart uptake): 0.5 ± 0.1 %ID/g; tissue uptake at 4 h ([1]; 10 pmol, Heart uptake): 0.3 ± 0.1 %ID/g; tissue uptake at 24 h ([1]; 10 pmol, Heart uptake): 0.2 ± 0.1 %ID/g; tissue uptake at 1 h ([1]; 10 pmol, Intestine uptake): 0.9 ± 0.4 %ID/g; tissue uptake at 4 h ([1]; 10 pmol, Intestine uptake): 0.7 ± 0.1 %ID/g; tissue uptake at 24 h ([1]; 10 pmol, Intestine uptake): 0.4 %ID/g; tissue uptake at 1 h ([1]; 10 pmol, Kidney uptake): 10.3 ± 0.7 %ID/g; tissue uptake at 4 h ([1]; 10 pmol, Kidney uptake): 6.9 ± 0.9 %ID/g; tissue uptake at 24 h ([1]; 10 pmol, Kidney uptake): 2.2 ± 0.6 %ID/g; tissue uptake at 1 h ([1]; 10 pmol, Liver uptake): 1.7 ± 0.2 %ID/g; tissue uptake at 4 h ([1]; 10 pmol, Liver uptake): 0.7 ± 0.3 %ID/g; tissue uptake at 24 h ([1]; 10 pmol, Liver uptake): 0.3 ± 0.1 %ID/g; tissue uptake at 1 h ([1]; 10 pmol, Lung uptake): 3 ± 1 %ID/g; tissue uptake at 4 h ([1]; 10 pmol, Lung uptake): 0.8 ± 0.2 %ID/g; tissue uptake at 24 h ([1]; 10 pmol, Lung uptake): 0.5 ± 0.1 %ID/g; tissue uptake at 1 h ([1]; 10 pmol, Muscle uptake): 0.4 %ID/g; tissue uptake at 4 h ([1]; 10 pmol, Muscle uptake): 0.1 ± 0.1 %ID/g; tissue uptake at 24 h ([1]; 10 pmol, Muscle uptake): 0.04 %ID/g; tissue uptake at 1 h ([1]; 10 pmol, Pancreas uptake): 5.6 ± 0.6 %ID/g; tissue uptake at 4 h ([1]; 10 pmol, Pancreas uptake): 0.4 ± 0.1 %ID/g; tissue uptake at 24 h ([1]; 10 pmol, Pancreas uptake): 0.2 %ID/g; tissue uptake at 1 h ([1]; 10 pmol, Spleen uptake): 0.9 ± 0.2 %ID/g; tissue uptake at 4 h ([1]; 10 pmol, Spleen uptake): 1.2 ± 0.2 %ID/g; tissue uptake at 24 h ([1]; 10 pmol, Spleen uptake): 0.9 ± 0.1 %ID/g; tissue uptake at 1 h ([1]; 10 pmol, Stomach uptake): 4.9 ± 1.6 %ID/g; tissue uptake at 4 h ([1]; 10 pmol, Stomach uptake): 0.9 ± 0.2 %ID/g; tissue uptake at 24 h ([1]; 10 pmol, Stomach uptake): 0.4 %ID/g; tissue uptake at 1 h ([1]; 10 pmol, Tumor uptake): 20.6 ± 3.7 %ID/g; tissue uptake at 4 h ([1]; 10 pmol, Tumor uptake): 19 ± 3.1 %ID/g; tissue uptake at 24 h ([1]; 10 pmol, Tumor uptake): 7.7 ± 2.5 %ID/g; tissue uptake at 1 h ([1]; 200 pmol, Adrenal uptake): 2.1 ± 1.2 %ID/g; tissue uptake at 1 h ([1]; 200 pmol, Blood uptake): 0.5 ± 0.1 %ID/g; tissue uptake at 1 h ([1]; 200 pmol, Bone uptake): 0.5 ± 0.3 %ID/g; tissue uptake at 1 h ([1]; 200 pmol, Heart uptake): 0.3 ± 1 %ID/g; tissue uptake at 1 h ([1]; 200 pmol, Intestine uptake): 0.5 ± 0.1 %ID/g; tissue uptake at 1 h ([1]; 200 pmol, Kidney uptake): 10.6 ± 1.6 %ID/g; tissue uptake at 1 h ([1]; 200 pmol, Liver uptake): 1.6 ± 0.3 %ID/g; tissue uptake at 1 h ([1]; 200 pmol, Lung uptake): 0.4 ± 0.2 %ID/g; tissue uptake at 1 h ([1]; 200 pmol, Muscle uptake): 0.2 %ID/g; tissue uptake at 1 h ([1]; 200 pmol, Pancreas uptake): 1.7 ± 0.3 %ID/g; tissue uptake at 1 h ([1]; 200 pmol, Spleen uptake): 0.7 ± 0.1 %ID/g; tissue uptake at 1 h ([1]; 200 pmol, Stomach uptake): 1.7 ± 0.7 %ID/g; tissue uptake at 1 h ([1]; 200 pmol, Tumor uptake): 16.4 ± 0.7 %ID/g; tissue uptake at 1 h ([1]; 1000 pmol, Adrenal uptake): 1.4 ± 0.6 %ID/g; tissue uptake at 1 h ([1]; 1000 pmol, Blood uptake): 0.4 ± 0.1 %ID/g; tissue uptake at 1 h ([1]; 1000 pmol, Bone uptake): 0.8 ± 0.4 %ID/g; tissue uptake at 1 h ([1]; 1000 pmol, Heart uptake): 0.3 ± 0.1 %ID/g; tissue uptake at 1 h ([1]; 1000 pmol, Intestine uptake): 0.3 ± 0.1 %ID/g; tissue uptake at 1 h ([1]; 1000 pmol, Kidney uptake): 7.9 ± 0.4 %ID/g; tissue uptake at 1 h ([1]; 1000 pmol, Liver uptake): 1 ± 0.2 %ID/g; tissue uptake at 1 h ([1]; 1000 pmol, Lung uptake): 0.3 ± 0.1 %ID/g; tissue uptake at 1 h ([1]; 1000 pmol, Muscle uptake): 0.3 ± 0.2 %ID/g; tissue uptake at 1 h ([1]; 1000 pmol, Pancreas uptake): 0.8 ± 0.2 %ID/g; tissue uptake at 1 h ([1]; 1000 pmol, Spleen uptake): 0.5 ± 0.1 %ID/g; tissue uptake at 1 h ([1]; 1000 pmol, Stomach uptake): 0.9 ± 0.2 %ID/g; tissue uptake at 1 h ([1]; 1000 pmol, Tumor uptake): 9.7 ± 2.4 %ID/g; tissue uptake at 1 h ([1]; 2000 pmol, Adrenal uptake): 1.9 ± 0.7 %ID/g; tissue uptake at 1 h ([1]; 2000 pmol, Blood uptake): 0.3 ± 0.1 %ID/g; tissue uptake at 1 h ([1]; 2000 pmol, Bone uptake): 0.2 %ID/g; tissue uptake at 1 h ([1]; 2000 pmol, Heart uptake): 0.2 ± 0.1 %ID/g; tissue uptake at 1 h ([1]; 2000 pmol, Intestine uptake): 0.4 ± 0.1 %ID/g; tissue uptake at 1 h ([1]; 2000 pmol, Kidney uptake): 8.1 ± 0.7 %ID/g; tissue uptake at 1 h ([1]; 2000 pmol, Liver uptake): 0.8 ± 0.1 %ID/g; tissue uptake at 1 h ([1]; 2000 pmol, Lung uptake): 0.3 %ID/g; tissue uptake at 1 h ([1]; 2000 pmol, Muscle uptake): 0.2 %ID/g; tissue uptake at 1 h ([1]; 2000 pmol, Pancreas uptake): 0.6 ± 0.1 %ID/g; tissue uptake at 1 h ([1]; 2000 pmol, Spleen uptake): 0.6 ± 0.1 %ID/g; tissue uptake at 1 h ([1]; 2000 pmol, Stomach uptake): 0.8 ± 0.1 %ID/g; tissue uptake at 1 h ([1]; 2000 pmol, Tumor uptake): 9.2 ± 0.4 %ID/g; Kd (human sst2 receptors): 5.7 ± 0.95 nM

Question: With `C[C@@H](O)[C@H](NC(=O)[C@@H]1CSSC[C@H](NC(=O)[C@@H](Cc2ccccc2)NC(=O)CN2CCN(CC(=O)O)CCN(CC(=O)O)CCN(CC(=O)O)CC2)C(=O)N[C@@H](Cc2ccc(O)cc2)C(=O)N[C@H](Cc2c[nH]c3ccccc23)C(=O)N[C@@H](CCCCN)C(=O)N[C@@H]([C@@H](C)O)C(=O)N1)C(=O)O` [^64Cu-DOTA-TATE, [^64Cu-DOTA, Tyr^3, Thr^8]octreotide, metal not drawn, reference compound] as the compound, how does the tissue uptake at 1 h ([1]; 10 pmol, Adrenal uptake) read?
Answer: 4.7 ± 1.5 %ID/g

Question: And the tissue uptake at 24 h ([1]; 10 pmol, Adrenal uptake)?
Answer: 0.7 ± 0.3 %ID/g

Question: What about the tissue uptake at 1 h ([1]; 10 pmol, Blood uptake) of the same compound?
Answer: 0.7 ± 0.2 %ID/g

Question: And the tissue uptake at 4 h ([1]; 10 pmol, Blood uptake)?
Answer: 0.6 ± 0.1 %ID/g

Question: What about the tissue uptake at 24 h ([1]; 10 pmol, Blood uptake) of the same compound?
Answer: 0.5 ± 0.05 %ID/g

Question: And the tissue uptake at 1 h ([1]; 10 pmol, Bone uptake)?
Answer: 1.6 ± 0.5 %ID/g

Question: What about the tissue uptake at 24 h ([1]; 10 pmol, Bone uptake) of the same compound?
Answer: 0.8 ± 0.1 %ID/g

Question: And the tissue uptake at 1 h ([1]; 10 pmol, Heart uptake)?
Answer: 1.1 ± 0.1 %ID/g

Question: What about the tissue uptake at 4 h ([1]; 10 pmol, Heart uptake) of the same compound?
Answer: 1.2 ± 0.3 %ID/g

Question: What about the tissue uptake at 24 h ([1]; 10 pmol, Heart uptake) of the same compound?
Answer: 1.1 ± 0.2 %ID/g

Question: And the tissue uptake at 24 h ([1]; 10 pmol, Intestine uptake)?
Answer: 2 ± 0.3 %ID/g

Question: What about the tissue uptake at 1 h ([1]; 10 pmol, Kidney uptake) of the same compound?
Answer: 4.8 ± 0.5 %ID/g

Question: What about the tissue uptake at 4 h ([1]; 10 pmol, Kidney uptake) of the same compound?
Answer: 3 ± 0.6 %ID/g

Question: What about the tissue uptake at 1 h ([1]; 10 pmol, Liver uptake) of the same compound?
Answer: 6.1 ± 1.2 %ID/g

Question: And the tissue uptake at 4 h ([1]; 10 pmol, Liver uptake)?
Answer: 5.2 ± 1.6 %ID/g

Question: What about the tissue uptake at 24 h ([1]; 10 pmol, Liver uptake) of the same compound?
Answer: 4.6 ± 0.6 %ID/g

Question: And the tissue uptake at 1 h ([1]; 10 pmol, Lung uptake)?
Answer: 9.8 ± 2.6 %ID/g

Question: And the tissue uptake at 4 h ([1]; 10 pmol, Lung uptake)?
Answer: 5.4 ± 1.4 %ID/g

Question: And the tissue uptake at 1 h ([1]; 10 pmol, Muscle uptake)?
Answer: 0.3 ± 0.1 %ID/g

Question: What about the tissue uptake at 4 h ([1]; 10 pmol, Muscle uptake) of the same compound?
Answer: 0.2 ± 0.03 %ID/g

Question: And the tissue uptake at 24 h ([1]; 10 pmol, Muscle uptake)?
Answer: 0.3 ± 0.1 %ID/g

Question: What about the tissue uptake at 1 h ([1]; 10 pmol, Pancreas uptake) of the same compound?
Answer: 24.6 ± 2.4 %ID/g

Question: What about the tissue uptake at 4 h ([1]; 10 pmol, Pancreas uptake) of the same compound?
Answer: 4.4 ± 1 %ID/g

Question: And the tissue uptake at 24 h ([1]; 10 pmol, Pancreas uptake)?
Answer: 0.95 ± 0.1 %ID/g

Question: And the tissue uptake at 4 h ([1]; 10 pmol, Spleen uptake)?
Answer: 1.1 ± 0.4 %ID/g

Question: And the tissue uptake at 24 h ([1]; 10 pmol, Spleen uptake)?
Answer: 1.2 ± 0.1 %ID/g

Question: What about the tissue uptake at 1 h ([1]; 10 pmol, Stomach uptake) of the same compound?
Answer: 16.1 ± 1.7 %ID/g

Question: And the tissue uptake at 4 h ([1]; 10 pmol, Stomach uptake)?
Answer: 10.6 ± 1.6 %ID/g

Question: And the tissue uptake at 24 h ([1]; 10 pmol, Stomach uptake)?
Answer: 3.1 ± 0.3 %ID/g

Question: What about the tissue uptake at 1 h ([1]; 10 pmol, Tumor uptake) of the same compound?
Answer: 20.3 ± 2.5 %ID/g

Question: What about the tissue uptake at 4 h ([1]; 10 pmol, Tumor uptake) of the same compound?
Answer: 14.9 ± 1 %ID/g
